According to article PMC13042514, “Comprehensive Profiling of N 6‐methyladnosine (m6A) Readouts Reveals Novel m6A Readers That Regulate Human Embryonic Stem Cell Differentiation”:

Legend:
Assay in all cases: EMSA; EMSA: Beyotime GS606 kit binding buffer (composition not given), 1 ug protein and 1 uL of 2.5 nM biotin probe in 10 uL, on ice 10 min; pull-down: Pierce 20164 kit, 50 pmol RNA, 200 ug total protein, 4 C 30-60 min
Conditions in all cases: protein: recombinant; tags: GST; label: biotin; single strand
[1] = target: GST-FXR2 (UniProt P51116 1-673)
[2] = target: GST-DDX6 (UniProt P26196 1-483)
[3] = target: T1, GST-L1TD1 (UniProt Q5T7N2 1-865)
T1 sequence: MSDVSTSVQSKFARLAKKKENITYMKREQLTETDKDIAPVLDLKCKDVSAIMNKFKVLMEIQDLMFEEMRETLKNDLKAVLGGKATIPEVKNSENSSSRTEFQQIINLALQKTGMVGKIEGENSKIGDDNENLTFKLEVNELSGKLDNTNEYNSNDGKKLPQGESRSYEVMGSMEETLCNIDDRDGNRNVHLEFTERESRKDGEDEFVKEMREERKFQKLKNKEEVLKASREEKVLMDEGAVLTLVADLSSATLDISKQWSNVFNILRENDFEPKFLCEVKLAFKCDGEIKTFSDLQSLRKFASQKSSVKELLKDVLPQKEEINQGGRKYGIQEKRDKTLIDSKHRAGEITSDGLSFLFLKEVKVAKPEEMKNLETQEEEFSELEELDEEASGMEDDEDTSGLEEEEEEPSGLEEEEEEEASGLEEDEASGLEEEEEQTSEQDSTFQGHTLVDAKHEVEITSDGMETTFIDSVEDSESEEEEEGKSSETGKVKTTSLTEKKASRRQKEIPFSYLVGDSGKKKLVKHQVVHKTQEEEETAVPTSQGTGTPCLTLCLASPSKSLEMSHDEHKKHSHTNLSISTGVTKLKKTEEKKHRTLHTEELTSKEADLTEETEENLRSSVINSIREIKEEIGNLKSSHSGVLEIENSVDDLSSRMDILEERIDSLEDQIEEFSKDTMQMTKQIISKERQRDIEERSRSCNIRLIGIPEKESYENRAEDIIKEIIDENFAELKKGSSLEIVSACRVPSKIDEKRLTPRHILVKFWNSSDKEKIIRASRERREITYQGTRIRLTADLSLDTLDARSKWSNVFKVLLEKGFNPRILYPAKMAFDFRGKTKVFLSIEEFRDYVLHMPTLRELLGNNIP

[4] = target: GST-FUBP3 (UniProt Q96I24 1-572)

Measured: binding result

Chain of GST-FUBP3 (Q96I24 whole entry): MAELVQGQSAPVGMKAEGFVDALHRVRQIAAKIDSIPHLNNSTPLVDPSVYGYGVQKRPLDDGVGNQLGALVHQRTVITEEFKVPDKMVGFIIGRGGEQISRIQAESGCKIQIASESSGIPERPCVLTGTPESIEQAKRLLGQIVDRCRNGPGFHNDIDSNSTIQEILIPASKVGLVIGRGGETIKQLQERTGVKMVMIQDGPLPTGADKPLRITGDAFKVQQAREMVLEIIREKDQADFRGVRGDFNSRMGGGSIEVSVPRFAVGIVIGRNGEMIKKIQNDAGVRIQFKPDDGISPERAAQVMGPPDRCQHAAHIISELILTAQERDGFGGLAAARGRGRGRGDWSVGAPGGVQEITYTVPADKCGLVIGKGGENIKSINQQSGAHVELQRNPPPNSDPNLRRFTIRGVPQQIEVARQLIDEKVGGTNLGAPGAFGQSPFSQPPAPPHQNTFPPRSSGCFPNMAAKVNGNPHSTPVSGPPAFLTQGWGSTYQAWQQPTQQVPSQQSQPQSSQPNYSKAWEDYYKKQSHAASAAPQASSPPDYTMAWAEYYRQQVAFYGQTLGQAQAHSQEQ
Chain of GST-DDX6 (P26196 whole entry): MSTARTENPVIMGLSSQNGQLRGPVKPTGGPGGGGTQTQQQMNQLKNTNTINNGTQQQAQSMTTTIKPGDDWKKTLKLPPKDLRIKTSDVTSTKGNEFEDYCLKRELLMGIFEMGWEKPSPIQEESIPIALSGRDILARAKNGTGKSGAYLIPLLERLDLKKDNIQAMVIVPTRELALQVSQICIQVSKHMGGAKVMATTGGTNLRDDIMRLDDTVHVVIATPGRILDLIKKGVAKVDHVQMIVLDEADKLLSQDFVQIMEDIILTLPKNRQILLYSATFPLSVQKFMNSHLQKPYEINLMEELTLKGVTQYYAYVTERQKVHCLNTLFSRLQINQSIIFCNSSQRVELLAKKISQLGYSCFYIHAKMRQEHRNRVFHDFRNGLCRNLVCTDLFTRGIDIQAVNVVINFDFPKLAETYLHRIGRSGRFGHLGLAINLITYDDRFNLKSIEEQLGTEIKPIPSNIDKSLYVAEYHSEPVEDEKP
Chain of GST-FXR2 (P51116 whole entry): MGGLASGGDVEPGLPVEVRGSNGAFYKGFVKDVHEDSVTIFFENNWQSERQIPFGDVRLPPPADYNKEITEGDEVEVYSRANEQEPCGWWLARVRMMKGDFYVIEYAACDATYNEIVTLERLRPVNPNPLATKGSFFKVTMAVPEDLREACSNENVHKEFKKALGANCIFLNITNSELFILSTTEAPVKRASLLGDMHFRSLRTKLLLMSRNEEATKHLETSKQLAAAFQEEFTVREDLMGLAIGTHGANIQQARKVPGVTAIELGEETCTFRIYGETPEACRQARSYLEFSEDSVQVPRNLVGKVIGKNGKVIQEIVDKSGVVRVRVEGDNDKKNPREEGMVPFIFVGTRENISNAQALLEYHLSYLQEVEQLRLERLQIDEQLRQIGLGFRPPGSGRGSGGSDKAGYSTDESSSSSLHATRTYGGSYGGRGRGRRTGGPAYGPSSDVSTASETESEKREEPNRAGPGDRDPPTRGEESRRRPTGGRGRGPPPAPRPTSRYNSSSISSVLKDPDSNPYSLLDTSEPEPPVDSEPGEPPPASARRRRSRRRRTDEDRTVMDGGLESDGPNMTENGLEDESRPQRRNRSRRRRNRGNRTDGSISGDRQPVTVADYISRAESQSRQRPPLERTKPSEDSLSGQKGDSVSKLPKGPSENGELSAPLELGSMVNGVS

CGUCUCGGACUCGGACUGCU (ssRNA, m6A at positions 9 and 15) [ss-m6A (EMSA)]
binds: all assays above
